The source of these data is publication PMC9258321, “Structure-guided design of CPPC-paired disulfide-rich peptide libraries for ligand and drug discovery†” (Chemical Science, 2022).

This assay deals with T1, Kelch domain of Keap1.
T1 construct: Keap1, Kelch domain; The Kelch domain is named for the phage selection; the SPR sentences say only 'Keap1'
Description: SPR; Keap1 with oxidized peptides, concentration-dependent. Conditions: both partners purified. (In general: In SPR one partner is held on a chip, and binding of the other changes the refractive index at the surface.)

Ends that are not written are not given here.

B1: drp5-a (peptide)
chain: CPPCHGRPTCDEETGECWELLTCPPC
modifications: disulfide (positions not given here); also: oxidized (disulfides), pairing of this isomer not given here
With B1, binding was characterised by a dissociation constant (Kd) of 153 nM.

One may read the Kd as the equilibrium constant for the complex coming apart. Low values mean a tighter complex, high ones a looser complex.
